Entries after “also recorded” stand apart in the source; their conditions may differ.
Legend:
[1] = system: rat neonatal cardiomyocytes; assay: [3H]-leucine incorporation assay (hypertrophy); format: cell-based
Experimental: Leucine incorporation in rat neonatal cardiomyocytes was detected as previously described (7). Cells were pre-incubated with 1.0 μCi/mL [^3H]leucine for 24 hours. The medium was aspirated, and the cells were washed twice with ice-cold PBS and once with 10% trichloroacetic acid (TCA; Sigma) and fixed for 45 minutes at 4° C. with 10% TCA. After washing twice with cold 95% ethanol, radioactivity incorporated into the TCA-precipitable material was determined by liquid scintillation counting after solubilization in 0.15N NaOH.
Leucine incorporation in rat neonatal cardiomyocytes was detected as previously described (46). Cells were treated with 1.0 μCi/ml [^3H]-leucine for 24 hours, washed, fixed with 10% trichloroacetate (Sigma) for 45 minutes at 4° C., and then radioactivity was determined by liquid scintillation counting. An anti-mouse ST2 antibody (R&D) was used as a functional neutralizing antibody (12). A normal rat IgG2a (Sigma) and mouse IL-1Rrp2 (R&D) were used as controls for anti-mouse ST2 antibody (R&D) and mouse soluble ST2 (R&D), respectively.

[2] = system: rat neonatal cardiomyocytes; assay: In vitro cell size measurement of cardiomyocytes; format: cell-based; settings: with or without angiotensin-II (0.1 μM), IL-33 (10 ng/ml), anti-ST2 antibody (100 μg/ml)
Experimental: Sarcomeric α-actinin staining for cardiomyocytes and BrdUrd labeling for cardiac fibroblasts were performed as described previously (5). Mouse monoclonal antibody to sarcomeric α-actinin (EA-53, Sigma) was diluted 1:100 and used. For cardiomyocyte size, cells were visualized using an inverted fluorescent microscope (IX-70; Olympus), and the surface area of the cardiomyocytes was calculated with ImagePro Express software. Cells from randomly selected fields were analyzed.
Cell culture of rat neonatal cardiomyocytes and cardiac fibroblasts was performed as previously described (42, 43). Briefly, hearts from 1-3 day-old Sprague-Dawley rat neonates (Charles River) were digested with trypsin (1 mg/ml, GIBCO) and collagenase-II (0.8 mg/ml, Worthington), and plated on non-coated culture dishes for 1.5 hrs. Attached cells were further cultured with Dulbecco's Modified Essential Medium (GIBCO) containing 10% fetal bovine serum and used as cardiac fibroblasts after 2 passages. […]
Immunofluorescence staining on paraffin-embedded mice hearts or rat neonatal cardiomyocyte cell culture was performed as described previously (42, 45). […] For measuring cardiomyocyte size, the surface area of the cells was calculated with ImagePro Express software. Cells from randomly selected fields were analyzed.

[3] = system: lungs of Sham-operated mice; assay: Lung histology of Sham-operated mice after IL-33 treatment; format: in vivo, mouse; settings: 2 μg/day rat IL-33 for 7 days
Experimental: Targeted ST2−/− mice and their WT littermates were employed for the experiments. […] All operative procedures were performed by a single operator with over 20 years rodent cardiac surgery experience who was blinded to genotype and the randomized treatment assignment. Following the procedure, each mouse received daily i.p. injection of recombinant rat IL-33 (2 μg) or vehicle from the day after TAC operation until the day of harvest.

NF-κB = NF-κB nuclear binding activity by EMSA in cardiomyocytes; format: cell-based, rat
Experimental: Electromobility shift assays were performed as described previously (8). Cells were lysed for 10 minutes on ice in a solution containing 10 mM HEPES (pH 7.6), 15 mM KCl, 2 mM MgCl2, 0.1 mM ethylenediamine tetraacetic acid (EDTA), 1 mM dithiothreitol (DTT), 0.5 mM phenylmethylsulphonylfluoride (PMSF), 10 μg/mL leupeptin and 0.2% Nonident P-40. Dishes were gently scraped, and nuclei were collected by centrifugation at 800 g for 30 seconds and then suspended in a solution of 50 mM HEPES, 400 mM KCl, 0.1 mM EDTA, 10% glycerol, 1 mM DTT, 0.5 mM PMSF and 10 μg/mL leupeptin. The mixture was incubated on ice for 30 minutes, and the supernatant was collected after centrifugation for 15 minutes at 400 g. Binding reactions were performed with 5 or 10 μg of nuclear protein in 10 mM Tris, 1 mM DTT, 1 mM EDTA, 5% glycerol, 0.1% Triton X-100, 1 mg poly(dIdC), 5 μg bovine serum albumin (BSA) and approximately 10,000 cpm of −32P-labeled oligonucleotide. The binding reactions for AP-1 activity also contained 5 mM MgCl2. Control reaction mixtures contained a 100-fold excess of unlabeled oligonucleotide and were incubated with nuclear extracts of IL-1β-treated cells. DNA complexes were separated on a 4% nondenaturing polyacrylamide gel in Tris-HCl (6.7 mM), EDTA (1 mM) and ammonium acetate (3.3 mM). The oligonucleotides contained the NF-B binding site (sequence: 5′-AGTTGAGGGGACTTTCCCAGGC-3′ (SEQ ID NO: 15)) and were labeled by standard procedures.
EMSAs were performed as described previously (47). Cells were lysed for 10 minutes on ice in 10 mM HEPES (pH 7.6), 15 mM KCl, 2 mM MgCl2, 0.1 mM EDTA, 1 mM DTT, 0.5 mM PMSF, 10 μg/mL leupeptin, and 0.2% Nonident P-40. Dishes were gently scraped, and nuclei were collected by centrifugation at 800 g for 30 seconds and then suspended in a solution of 50 mM HEPES, 400 mM KCl, 0.1 mM EDTA, 10% glycerol, 1 mM DTT, 0.5 mM PMSF, and 10 μg/mL leupeptin. The mixture was incubated on ice for 30 minutes, and the supernatant was collected after centrifugation for 15 minutes at 400 g. Binding reactions were performed with 5 or 10 μg of nuclear protein in 10 mM Tris, 1 mM DTT, 1 mM EDTA, 5% glycerol, 0.1% Triton X-100, 1 mg poly(dIdC), […] BSA, and 10,000 cpm of [^32P]-labeled oligonucleotide. The specific NF-κB consensus oligonucleotides were 5′-[…]-3′ (SEQ ID NO: 15) and 5′-[…]-3′ (SEQ ID NO: 18) (Promega). Positive and negative control mixtures as well as specific competition mixtures were made as recommended by the manufacturer's instructions, using binding buffer with positive samples, labeled NF-κB oligonucleotides and 10-fold excess of cold NF-κB consensus oligonucleotides for specific competition. DNA complexes were separated on a 6% nondenaturing polyacrylamide gel in Tris-HCl (6.7 mM), EDTA (1 mM), and ammonium acetate (3.3 mM).

B1: IL-33: recombinant mature rat IL-33, starting with amino acid 109 of the full-length protein, N-terminal His tag (GenBank BC081993) (protein)
chain: SIQGTSLLTESCALSTYNDQSVSFVLENGCYVINVEDCGKNQEKDKVLLRYYESSFPAQSGDGVDGKKLMVNMSPIKDTDIWLNANDKDYSVELQKGDVSPPDQAFFVLHKKSSDFVSFECKNLPGTYIGVKDNQLALVEENDESCNNIMFKLSKM
modifications: left off: small tags and cut ends
[1]; co-treatment with IL-33
  hypertrophy (leucine uptake) induced by angiotensin-II or phenylephrine: can block cardiac hypertrophy; also recorded: potently blocked cardiomyocyte hypertrophy; also recorded: abrogates angiotensin-II- and phenylephrine-induced hypertrophy in cardiomyocytes in vitro; also recorded: blocks hypertrophy induced by angiotensin II; also recorded: dose dependent ability to decrease hypertrophy induced by angiotensin II and phenylephrine; also recorded: can antagonize hypertrophic effects of angiotensin II and phenylephrine; also recorded: blocked angiotensin-II or phenylephrine-induced leucine uptake in a dose-dependent manner
[1]; no other stimulus
  hypertrophy (leucine uptake), IL-33 alone: modest, dose-dependent pro-hypertrophic trend that was not statistically significant; also recorded: modest hypertrophic effect; also recorded: non-significant trend toward stimulating hypertrophy
[2]
  cardiomyocyte cell size: antihypertrophic effect of IL-33 was further confirmed
[3]; ST2−/− mice
  inflammatory changes in lung: None of these changes were observed; also recorded: These changes were not observed
[3]; WT mice
  epithelial lining of the airways: remained unchanged
  infiltration of inflammatory cells in lung: Mild infiltration of inflammatory cells within vessel walls and adjacent to the vessels; also recorded: mild focal infiltrations of inflammatory cells
NF-κB; PDGF-BB (10 ng/ml) or TNF-α (10 ng/ml), IL-33 10 ng/ml
  reduction of NF-κB nuclear binding activity induced by PDGF-BB or TNF-α: not observed; also recorded: did not block
NF-κB; cardiomyocytes, angiotensin-II 1 μM, phenylephrine 50 μM, IL-33 10 ng/ml
  NF-κB activation by agent alone: independently activated NF-κB in both cell types; also recorded: mildly activated NF-κB
NF-κB; cardiomyocytes, co-treatment with IL-33 10 ng/ml
  angiotensin-II- or phenylephrine-induced NF-κB activation: markedly attenuated

— US8147817B2, “IL-33 in the treatment and diagnosis of diseases and disorders” (The Brigham and Women's Hospital, Inc., priority 2006, dated 2012)
